Assay results: patent publication US20110086770A1 (ANAPHORE, published 2011)
Where a chain is given by its changes, count along the chain named. Names may count otherwise.

T1: recombinant human IL-12Rβ2/Fc fusion protein (R&D Systems) (human, UniProt Q99665 24-622, limits assumed)
T1 construct: bought; also called Il12Rb2
T1 sequence (looked up): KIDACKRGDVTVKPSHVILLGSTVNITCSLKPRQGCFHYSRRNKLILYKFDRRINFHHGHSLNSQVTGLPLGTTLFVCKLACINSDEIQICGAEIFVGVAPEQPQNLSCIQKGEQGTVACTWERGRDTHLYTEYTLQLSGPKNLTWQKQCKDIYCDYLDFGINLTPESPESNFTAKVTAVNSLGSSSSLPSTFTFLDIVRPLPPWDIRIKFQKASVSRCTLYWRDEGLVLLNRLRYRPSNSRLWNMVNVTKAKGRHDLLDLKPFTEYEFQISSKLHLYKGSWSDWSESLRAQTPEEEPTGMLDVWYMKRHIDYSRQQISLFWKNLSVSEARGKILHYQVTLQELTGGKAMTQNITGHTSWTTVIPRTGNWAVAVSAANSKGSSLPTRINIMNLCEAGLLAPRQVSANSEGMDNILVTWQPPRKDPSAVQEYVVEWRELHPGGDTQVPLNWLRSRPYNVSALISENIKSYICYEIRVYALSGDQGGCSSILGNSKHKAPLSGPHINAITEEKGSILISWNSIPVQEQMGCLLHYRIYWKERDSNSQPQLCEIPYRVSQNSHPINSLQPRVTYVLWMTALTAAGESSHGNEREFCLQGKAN

T2: recombinant human IL-23R/Fc chimera (R&D Systems) (human, UniProt Q5VWK5 24-353)
T2 construct: bought; also called human IL-23R/Fc fusion protein; rhIL23RFc
T2 sequence (looked up): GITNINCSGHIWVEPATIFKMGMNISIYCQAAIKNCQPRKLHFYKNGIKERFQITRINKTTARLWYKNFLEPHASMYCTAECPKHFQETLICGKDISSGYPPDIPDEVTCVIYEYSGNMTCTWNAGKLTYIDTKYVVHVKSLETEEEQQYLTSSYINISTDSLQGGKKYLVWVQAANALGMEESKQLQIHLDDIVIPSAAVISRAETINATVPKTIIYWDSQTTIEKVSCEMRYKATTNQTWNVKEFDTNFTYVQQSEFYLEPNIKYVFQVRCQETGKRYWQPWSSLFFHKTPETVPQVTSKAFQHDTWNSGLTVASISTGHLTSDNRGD

B1: 101-113-6C108 ATRIMER (designed binder)
chain: EPPTQKPKKIVNAKKDVVNTKMFEELKSRLDTLAQEVALLKEQQALQTVCLKGTKVHMKCFLAFTQTKTFHEASEDCISRGGTLSTPQTGSENDALYEYLRQSVGNEAEIWLGLNGSALTNTWVDMTGARIAYKNWEPPPPHHPMGGFGVFGENCAVLSGAANGKWFDKRCRDQLPYICQFGIV
B2: 101-51-1A4 ATRIMER (designed binder)
chain: B1 chain with P138R, P140A, P141L, H142V, H143Q, M145R
notes: also called ATRIMER complex 1A4
B3: 101-51-1A7 ATRIMER (designed binder)
chain: B1 chain with P138R, P141L, H142Y, H143Q, M145G, F148W
B4: A9E ATRIMER (designed binder)
chain: B1 chain with P138T, P139E, P140I, P141T, H142A, H143Q, M145D, F148L, V150Y, F151W
B5: 4G8 ATRIMER (designed binder)
chain: EPPTQKPKKIVNAKKDVVNTKMFEELKSRLDTLAQEVALLKEQQALQTVCLKGTKVHMKCFLAFTQTKTFHEASEDCISRGGTLSTPQTGSENDALYEYLRQSVGNEAEIWLGLNGSRRSGVWVDMTGARIAYKNWETEITAQPDGGFGVFGENCAVLSGAANGKWFDKRCRDQLPYICQFGIV
modifications: Forms a homotrimer through the tetranectin coiled coil; one protomer is given.
notes: made in E. coli; also called 001-69.4G8; ATRIMER complex 4G8

The binders below were run against T1, recombinant human IL-12Rβ2/Fc fusion … (assay: Biacore, IL-12Rβ2/Fc captured).
Experimental: (§1) A Biacore 3000 biosensor (GE Healthcare) was used to evaluate the interaction of human IL-12Rβ1/Fc or IL-12Rβ2/Fc with IL-23R binding ATRIMER™ complexes. Immobilization of an anti-human IgG Fc antibody (GE Healthcare) to the CM5 chip (GE Healthcare) was performed using standard amine coupling chemistry, and this modified surface was used to capture recombinant human IL-12Rβ1/Fc or IL-12Rβ2/Fc fusion protein (R&D Systems). A low-density receptor surface, less than 200 RU, was used for all of the analyses. ATRIMER™ complex dilutions (100 nM) were injected over the IL-12R surface at 30 μl/min. Data collection was 3 minutes for the association and 5 minutes for dissociation. The anti-human IgG surface was regenerated with a 30 s pulse of 3M magnesium chloride. All sensorgrams were double-referenced against an anti-human IgG Fc antibody surface as well as buffer injections.

binding result | Binder
no binding (tested: 100 nM) | B1
no binding (tested: 100 nM) | B2
no binding (tested: 100 nM) | B3

What follows are binders tested against T2, recombinant human IL-23R/Fc chimera … (assay: SPR (Biacore), captured IL-23R/Fc, ATRIMER).
Experimental: A Biacore 3000 biosensor (GE Healthcare) was used to evaluate the interaction of human IL-23R and receptor binders. Immobilization of an anti-human IgG Fc antibody (GE Heathcare) to the CM5 chip (Biacore) was performed using standard amine coupling chemistry, and this modified surface was used to capture a recombinant human IL-23R/Fc fusion protein (R&D Systems). A low-density receptor surface, less than 200 RU, was used for all of the analyses. ATRIMER™ polypeptide complex dilutions (1-500 nM) were injected over the IL-23R surface at 30 μl/min and kinetic constants were derived from the sensorgram data using the Biaevaluation software (version 3.1, GE Healthcare). Data collection was 3 minutes for the association and 5 minutes for dissociation. The anti-human IgG surface was regenerated with a 30 s pulse of 3M magnesium chloride. All sensorgrams were double-referenced against an activated and blocked flow-cell as well as buffer injections.

Ka [M⁻¹] | Kd [nM] | koff [s⁻¹] | kon [M⁻¹ s⁻¹] | Binder
5.21e+08 | 1.92 | 0.00033 | 172000 | B4
1.63e+09 | 0.613 | 0.000382 | 623000 | B1
2.58e+09 | 0.388 | 0.000395 | 1.02e+06 | B2
2.24e+09 | 0.447 | 0.000187 | 419000 | B3
1.35e+08 | 7.42 | 0.000805 | 109000 | B5

Each binder was assayed against T3, recombinant human IL-12Rβ1/Fc fusion protein (R&D Systems) (human, UniProt P42701 24-540, limits assumed) (assay: Biacore, IL-12Rβ1/Fc captured).
T3 construct: bought; also called Il12Rb1
Experimental: as §1

binding result | Binder
no binding (tested: 100 nM) | B1
no binding (tested: 100 nM) | B2
no binding (tested: 100 nM) | B3

The binders below were run against T2, recombinant human IL-23R/Fc chimera … (assay: competition ELISA against IL-23).
Experimental: Assays were performed generally as follows. Individual wells in Immulon HB2 plates were incubated overnight at 4° C. with 100 μL PBS containing 100 ng of an anti-human IgG Fc (R&D MAB 110 clone 97924). Plates were washed five times with PBS/0.05% Tween 20, and wells were incubated for 1.5 h at RT with 100 μL each of PBS containing 50 ng of recombinant human IL-23R/Fc. […] Competitor was included at a final concentration of 1 μg/mL. After incubation, plates were washed as described and wells were incubated for 40 min at RT with 100 μL each of PBS containing a 1:5000 dilution of streptavidin-HRP conjugate (Pierce catalog no. 21130). After washing, wells were incubated with 100 μL each of TMB (BioFX Lab catalog no. TMBH-1000-0) for up to 30 min at RT. Reactions were stopped with an equal volume of 0.2 M sulfuric acid.
A number of ATRIMER™ polypeptide complexes were tested in competition ELISA more extensively to determine IC50 values.

IC50 [nM] | Binder
2.6 | B4
1.4 | B5

Biological target: T2, recombinant human IL-23R/Fc chimera …
Test: competition ELISA against IL-23
Remark: another data set of the same source

Ratio IC50 to 056-53.H4E IC50 [ratio] | Binder
0.9 | B1
1 | B2
1 | B3
